Key:
CM1-CM2 substrate 2003 = molecular target: T1, CM1-CM2 substrate 2003
T1 chain: ISSGLLSGRSANPRG

CM1-CM2 substrate 2005 = molecular target: T2, CM1-CM2 substrate 2005
T2 chain: AVGLLAPPSGRSANPRG

[1] = molecular target: anti-EGFR activatable antibodies comprising substrates 2001, 2006-2010 and 2012

B1: human matriptase (protein)
chain: GSDEKDCDCGLRSFTRQARVVGGTDADEGEWPWQVSLHALGQGHICGASLISPNWLVSAAHCYIDDRGFRYSDPTQWTAFLGLHDQSQRSAPGVQERRLKRIISHPFFNDFTFDYDIALLELEKPAEYSSMVRPICLPDASHVFPAGKAIWVTGWGHTQYGGTGALILQKGEIRVINQTTCENLLPQQITPRMMCVGFLSGGVDSCQGDSGGPLSSVEADGRIFQAGVVSWGDGCAQRNKPGVYTRLPLFRDWIKENTGV
CM1-CM2 substrate 2003
  cleavage kinetics, fold increase as compared to substrate 2001: approximately a 50-fold increase
CM1-CM2 substrate 2005
  cleavage kinetics, fold increase as compared to substrate 1004/LP′/0001: approximately a 50-fold increase
[1]
  kcat/Km: a range of kcat/Km values ranging from 6E+02 to 2E+04

Source: patent publication US11472875
